pKd: −log10 of the molar value.
Columns and labels:
[1] = target: human p140 TrkA receptor (human) (UniProt P04629); assay: cell-based or functional assay
[2] = target: human p140 TrkA receptor (human) (UniProt P04629); assay: Scatchard analysis of 125I[5C3] binding to 4-3.6 cells
[3] = target: human p140 TrkA receptor (human) (UniProt P04629); assay: 125I[NGF] (~1 nM) binding to E25 cells after preincubation with excess unlabeled mAb 5C3; competitor unlabeled mAb 5C3
[4] = target: human p140 TrkA receptor (human) (UniProt P04629); assay: Scatchard analysis of 125I[5C3] binding to 4-3.6 cells, 4° C.
[5] = target: human p140 TrkA receptor (human) (UniProt P04629); assay: Scatchard analysis of 125I[5C3] binding to E25 cells, 4° C.
[6] = target: human p140 TrkA receptor (human) (UniProt P04629); assay: 125I[NGF] binding to E25 cells after preincubation with excess unlabeled mAb 5C3
[7] = target: human p140 TrkA receptor (human) (UniProt P04629); assay: Scatchard analysis of 125I[5C3] binding to E25 cells
[8] = target: human p140 TrkA receptor (human) (UniProt P04629); assay: summary of the 125I[5C3] binding studies
[9] = target: human p140 TrkA receptor (human) (UniProt P04629); assay: FACScan 5C3 surface staining of 4-3.6 cells after NGF treatment at 37° C., relative to vehicle (100%); competitor mAb 5C3
[10] = target: human p140 TrkA receptor (human) (UniProt P04629); assay: FACScan 5C3 surface staining of 4-3.6 cells after NGF treatment at 4° C., relative to vehicle (100%); competitor mAb 5C3
[11] = target: human p140 TrkA receptor (human) (UniProt P04629); assay: 125I[NGF] binding to E25 cells blocked with 5 µM unlabeled NGF (defined as background)

UniProt P04629, sequence (P04629 33-796): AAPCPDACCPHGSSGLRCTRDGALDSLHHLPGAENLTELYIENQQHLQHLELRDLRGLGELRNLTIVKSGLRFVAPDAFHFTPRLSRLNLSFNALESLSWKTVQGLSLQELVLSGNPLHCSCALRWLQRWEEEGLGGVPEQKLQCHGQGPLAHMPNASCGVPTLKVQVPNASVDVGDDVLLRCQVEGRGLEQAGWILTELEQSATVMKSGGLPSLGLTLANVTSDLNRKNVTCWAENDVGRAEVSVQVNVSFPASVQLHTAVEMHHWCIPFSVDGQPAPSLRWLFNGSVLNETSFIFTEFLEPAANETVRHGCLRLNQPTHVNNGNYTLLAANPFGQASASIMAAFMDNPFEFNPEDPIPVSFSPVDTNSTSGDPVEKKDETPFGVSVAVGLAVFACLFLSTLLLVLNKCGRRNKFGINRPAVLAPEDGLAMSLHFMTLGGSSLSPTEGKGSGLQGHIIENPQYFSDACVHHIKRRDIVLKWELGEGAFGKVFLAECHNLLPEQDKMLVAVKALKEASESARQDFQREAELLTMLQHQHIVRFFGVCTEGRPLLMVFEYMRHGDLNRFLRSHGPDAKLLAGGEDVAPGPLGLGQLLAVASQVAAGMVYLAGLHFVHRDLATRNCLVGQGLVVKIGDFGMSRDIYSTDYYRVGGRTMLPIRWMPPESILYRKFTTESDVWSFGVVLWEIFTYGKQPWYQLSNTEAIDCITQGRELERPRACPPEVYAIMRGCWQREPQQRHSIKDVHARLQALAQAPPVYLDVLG

Substance	% 5C3 STAINING after 5C3 (0.01 µg/ml) treatment at 4° C. (receptor internalization, 4-3.6 cells) [1] [%]	% 5C3 STAINING after 5C3 (0.01 µg/ml) treatment at 37° C. (receptor internalization, 4-3.6 cells) [1] [%]	FOLD INCREASE IN FOCI with respect to mIgG treated cells [1] [fold]	TYPICAL CELLS/FOCI (E25 cells in soft agar) [1] [cells/foci]	fold increase in PY of TrkA with respect to untreated cells (4-3.6 cells) [1] [fold]	fold increase in PY of TrkA with respect to untreated cells (E25 cells) [1] [fold]	5C3 binding sites/cell [2] [sites/cell]	% NGF BINDING [3] [%]	pKd [4]	pKd [5]	% inhibition of 125I[NGF] binding [6] [%]	5C3 binding sites/cell [7] [sites/cell]	pKd [8]	% 5C3 STAINING [9] [%]	% 5C3 STAINING [10] [%]	% NGF BINDING [11] [%]
anti-human TrkA monoclonal antibody 5C3	96	77	1.9	> 48	3.4	2.7	200000	39.3	8.52	8.80	60	250000	8.70	–	–	–
Nerve Growth Factor (ligand)	–	–	1.6	24	3.8	6.5	–	–	–	–	–	–	–	75	83	0
